Test results: PMC9440017, “Structural basis for Gemin5 decamer-mediated mRNA binding” (Nature Communications, 2022)
Several values for one entry are separate records, joined by “and”; a condition that tells them apart may be missing. Identical values can stand only once.

How the values were obtained:
[1] = target: G5C (Gemin5 841-1508) wild type (Homo sapiens) (UniProt Q8TEQ6); assay: fluorescence polarization; conditions: EMSA: 20 mM Tris-HCl pH 7.5, 100 mM NaCl, 1 h on ice, 0.35 uM RNA; FP: 20 mM Tris-HCl pH 7.5, 150 mM NaCl, 10 nM RNA (40 nM U7), protein 0-41 uM, temperature …
G5C M4 (Homo sapiens) = assay: fluorescence polarization; conditions: EMSA: 20 mM Tris-HCl pH 7.5, 100 mM NaCl, 1 h on ice, 0.35 uM RNA; FP: 20 mM Tris-HCl pH 7.5, 150 mM NaCl, 10 nM RNA (40 nM U7), protein 0-41 uM, temperature …
G5C A951E (Homo sapiens) = assay: fluorescence polarization; conditions: EMSA: 20 mM Tris-HCl pH 7.5, 100 mM NaCl, 1 h on ice, 0.35 uM RNA; FP: 20 mM Tris-HCl pH 7.5, 150 mM NaCl, 10 nM RNA (40 nM U7), protein 0-41 uM, temperature …
[2] = target: the molecule itself; assay: SEC; size-exclusion chromatography of purified G5C wild type and mutants against a molecular weight marker; self-association
[3] = target: the molecule itself; assay: SEC-MALS; Superose 6 Increase 10/300 GL coupled to DAWN HELEOS 8+; 100 ul at 1 mg/ml; 20 mM Tris-HCl pH 7.5, 330 mM NaCl; self-association

Molecule	stoichiometry N [2]	other results
SL1 RNA, FAM (FP)		Kd [1]: 6.5 µM; Kd (G5C M4 (Homo sapiens)): 138 µM; Kd (G5C A951E (Homo sapiens)): 32 µM
G5C K1363A/K1436A/R1437A/R1444A/K1492A mutant (domain or fragment, human, UniProt Q8TEQ6 841-1508, looked up, Gemin5, human, residues 841-1508 with K1363A, K1436A, R1437A, R1444A and K1492A; also called M5; source: E. coli BL21 (DE3), purified in the same way as wild-type G5C; not shown: His6, N-terminal, cleaved; copies: 10) KKRKARSLLPLSTSLDHRSKEELHQDCLVLATAKHSRELNEDVSADVEERFHLGLFTDRATLYRMIDIEGKGHLENGHPELFHQLMLWKGDLKGVLQTAAERGELTDNLVAMAPAAGYHVWLWAVEAFAKQLCFQDQYVKAASHLLSIHKVYEAVELLKSNHFYREAIAIAKARLRPEDPVLKDLYLSWGTVLERDGHYAVAAKCYLGATCAYDAAKVLAKKGDAASLRTAAELAAIVGEDELSASLALRCAQELLLANNWVGAQEALQLHESLQGQRLVFCLLELLSRHLEEKQLSEGKSSSSYHTWNTGTEGPFVERVTAVWKSIFSLDTPEQYQEAFQKLQNIKYPSATNNTPAKQLLLHICHDLTLAVLSQQMASWDEAVQALLRAVVRSYDSGSFTIMQEVYSAFLPDGCDHLRDKLGDHQSPATPAFKSLEAFFLYGRLYEFWWSLSRPCPNSSVWVRAGHRTLSVEPSQQLDTASTEETDPETSQPEPNRPSELDLRLTEEGERMLSTFKELFSEAHASLQNSQRTVAEVQETLAEMIRQHQKSQLCKSTANGPDKNEPEVEAEQPLCSSQSQCKEEKNEPLSLPELTAALTEANQAMAKFPESIKAWPFPDVLECCLVLLLIRSHFPGCLAQEMQQQAQELLQAYGNTKTYRRHCQTFCM	10	
Gemin5 C-terminal fragment (Gemin5 841-1508), wild type (domain or fragment, human, UniProt Q8TEQ6 841-1508, looked up, Gemin5, human, residues 841-1508 of the 1508-residue protein; Homodecamer (dimer of pentamers) by cryo-EM and static light scattering; also called G5C; G5C wild type; source: E. coli BL21 (DE3), purified (Ni-NTA, TEV cleavage, Superdex 200 gel filtration, mono Q); not shown: His6, N-terminal, cleaved; copies: 10) KKRKARSLLPLSTSLDHRSKEELHQDCLVLATAKHSRELNEDVSADVEERFHLGLFTDRATLYRMIDIEGKGHLENGHPELFHQLMLWKGDLKGVLQTAAERGELTDNLVAMAPAAGYHVWLWAVEAFAKQLCFQDQYVKAASHLLSIHKVYEAVELLKSNHFYREAIAIAKARLRPEDPVLKDLYLSWGTVLERDGHYAVAAKCYLGATCAYDAAKVLAKKGDAASLRTAAELAAIVGEDELSASLALRCAQELLLANNWVGAQEALQLHESLQGQRLVFCLLELLSRHLEEKQLSEGKSSSSYHTWNTGTEGPFVERVTAVWKSIFSLDTPEQYQEAFQKLQNIKYPSATNNTPAKQLLLHICHDLTLAVLSQQMASWDEAVQALLRAVVRSYDSGSFTIMQEVYSAFLPDGCDHLRDKLGDHQSPATPAFKSLEAFFLYGRLYEFWWSLSRPCPNSSVWVRAGHRTLSVEPSQQLDTASTEETDPETSQPEPNRPSELDLRLTEEGERMLSTFKELFSEKHASLQNSQRTVAEVQETLAEMIRQHQKSQLCKSTANGPDKNEPEVEAEQPLCSSQSQCKEEKNEPLSLPELTKRLTEANQRMAKFPESIKAWPFPDVLECCLVLLLIRSHFPGCLAQEMQQQAQELLQKYGNTKTYRRHCQTFCM		stoichiometry N [3]: 10
G5C L1468D/L1469D double mutant (domain or fragment, human, UniProt Q8TEQ6 841-1508, looked up, Gemin5, human, residues 841-1508 with L1468D and L1469D; also called M1; source: E. coli BL21 (DE3), purified in the same way as wild-type G5C; not shown: His6, N-terminal, cleaved) KKRKARSLLPLSTSLDHRSKEELHQDCLVLATAKHSRELNEDVSADVEERFHLGLFTDRATLYRMIDIEGKGHLENGHPELFHQLMLWKGDLKGVLQTAAERGELTDNLVAMAPAAGYHVWLWAVEAFAKQLCFQDQYVKAASHLLSIHKVYEAVELLKSNHFYREAIAIAKARLRPEDPVLKDLYLSWGTVLERDGHYAVAAKCYLGATCAYDAAKVLAKKGDAASLRTAAELAAIVGEDELSASLALRCAQELLLANNWVGAQEALQLHESLQGQRLVFCLLELLSRHLEEKQLSEGKSSSSYHTWNTGTEGPFVERVTAVWKSIFSLDTPEQYQEAFQKLQNIKYPSATNNTPAKQLLLHICHDLTLAVLSQQMASWDEAVQALLRAVVRSYDSGSFTIMQEVYSAFLPDGCDHLRDKLGDHQSPATPAFKSLEAFFLYGRLYEFWWSLSRPCPNSSVWVRAGHRTLSVEPSQQLDTASTEETDPETSQPEPNRPSELDLRLTEEGERMLSTFKELFSEKHASLQNSQRTVAEVQETLAEMIRQHQKSQLCKSTANGPDKNEPEVEAEQPLCSSQSQCKEEKNEPLSLPELTKRLTEANQRMAKFPESIKAWPFPDVLECCLVLDDIRSHFPGCLAQEMQQQAQELLQKYGNTKTYRRHCQTFCM	2 and 4	
G5C L1381D/M1384D/I1385D triple mutant (domain or fragment, human, UniProt Q8TEQ6 841-1508, looked up, Gemin5, human, residues 841-1508 with L1381D, M1384D and I1385D; also called M2; source: E. coli BL21 (DE3), purified in the same way as wild-type G5C; not shown: His6, N-terminal, cleaved) KKRKARSLLPLSTSLDHRSKEELHQDCLVLATAKHSRELNEDVSADVEERFHLGLFTDRATLYRMIDIEGKGHLENGHPELFHQLMLWKGDLKGVLQTAAERGELTDNLVAMAPAAGYHVWLWAVEAFAKQLCFQDQYVKAASHLLSIHKVYEAVELLKSNHFYREAIAIAKARLRPEDPVLKDLYLSWGTVLERDGHYAVAAKCYLGATCAYDAAKVLAKKGDAASLRTAAELAAIVGEDELSASLALRCAQELLLANNWVGAQEALQLHESLQGQRLVFCLLELLSRHLEEKQLSEGKSSSSYHTWNTGTEGPFVERVTAVWKSIFSLDTPEQYQEAFQKLQNIKYPSATNNTPAKQLLLHICHDLTLAVLSQQMASWDEAVQALLRAVVRSYDSGSFTIMQEVYSAFLPDGCDHLRDKLGDHQSPATPAFKSLEAFFLYGRLYEFWWSLSRPCPNSSVWVRAGHRTLSVEPSQQLDTASTEETDPETSQPEPNRPSELDLRLTEEGERMLSTFKELFSEKHASLQNSQRTVAEVQETDAEDDRQHQKSQLCKSTANGPDKNEPEVEAEQPLCSSQSQCKEEKNEPLSLPELTKRLTEANQRMAKFPESIKAWPFPDVLECCLVLLLIRSHFPGCLAQEMQQQAQELLQKYGNTKTYRRHCQTFCM	2 and 4	
G5C L1469H single mutant (domain or fragment, human, UniProt Q8TEQ6 841-1508, looked up, Gemin5, human, residues 841-1508 with L1469H; also called M3; source: E. coli BL21 (DE3), purified in the same way as wild-type G5C; not shown: His6, N-terminal, cleaved; copies: 10) KKRKARSLLPLSTSLDHRSKEELHQDCLVLATAKHSRELNEDVSADVEERFHLGLFTDRATLYRMIDIEGKGHLENGHPELFHQLMLWKGDLKGVLQTAAERGELTDNLVAMAPAAGYHVWLWAVEAFAKQLCFQDQYVKAASHLLSIHKVYEAVELLKSNHFYREAIAIAKARLRPEDPVLKDLYLSWGTVLERDGHYAVAAKCYLGATCAYDAAKVLAKKGDAASLRTAAELAAIVGEDELSASLALRCAQELLLANNWVGAQEALQLHESLQGQRLVFCLLELLSRHLEEKQLSEGKSSSSYHTWNTGTEGPFVERVTAVWKSIFSLDTPEQYQEAFQKLQNIKYPSATNNTPAKQLLLHICHDLTLAVLSQQMASWDEAVQALLRAVVRSYDSGSFTIMQEVYSAFLPDGCDHLRDKLGDHQSPATPAFKSLEAFFLYGRLYEFWWSLSRPCPNSSVWVRAGHRTLSVEPSQQLDTASTEETDPETSQPEPNRPSELDLRLTEEGERMLSTFKELFSEKHASLQNSQRTVAEVQETLAEMIRQHQKSQLCKSTANGPDKNEPEVEAEQPLCSSQSQCKEEKNEPLSLPELTKRLTEANQRMAKFPESIKAWPFPDVLECCLVLLHIRSHFPGCLAQEMQQQAQELLQKYGNTKTYRRHCQTFCM	10	
G5C R1035A/K1061A/K1062A/R1090A quadruple mutant (domain or fragment, human, UniProt Q8TEQ6 841-1508, looked up, Gemin5, human, residues 841-1508 with R1035A, K1061A, K1062A and R1090A; also called M4; source: E. coli BL21 (DE3), purified in the same way as wild-type G5C; not shown: His6, N-terminal, cleaved; copies: 10) KKRKARSLLPLSTSLDHRSKEELHQDCLVLATAKHSRELNEDVSADVEERFHLGLFTDRATLYRMIDIEGKGHLENGHPELFHQLMLWKGDLKGVLQTAAERGELTDNLVAMAPAAGYHVWLWAVEAFAKQLCFQDQYVKAASHLLSIHKVYEAVELLKSNHFYREAIAIAKARLRPEDPVLKDLYLSWGTVLEADGHYAVAAKCYLGATCAYDAAKVLAAAGDAASLRTAAELAAIVGEDELSASLALACAQELLLANNWVGAQEALQLHESLQGQRLVFCLLELLSRHLEEKQLSEGKSSSSYHTWNTGTEGPFVERVTAVWKSIFSLDTPEQYQEAFQKLQNIKYPSATNNTPAKQLLLHICHDLTLAVLSQQMASWDEAVQALLRAVVRSYDSGSFTIMQEVYSAFLPDGCDHLRDKLGDHQSPATPAFKSLEAFFLYGRLYEFWWSLSRPCPNSSVWVRAGHRTLSVEPSQQLDTASTEETDPETSQPEPNRPSELDLRLTEEGERMLSTFKELFSEKHASLQNSQRTVAEVQETLAEMIRQHQKSQLCKSTANGPDKNEPEVEAEQPLCSSQSQCKEEKNEPLSLPELTKRLTEANQRMAKFPESIKAWPFPDVLECCLVLLLIRSHFPGCLAQEMQQQAQELLQKYGNTKTYRRHCQTFCM	10	
